In the supplement of paper PMC10567573:

B1: EHMT1 (parent)
chain: EEINKNISDFGRQQLLPPFPSLHQ
B2: TTC32 (parent)
chain: YSAYIRRCACAASSDESPGSKCSP

Variants of: B1
Assay: protein stability index of a GFP-peptide fusion (GPS, HEK-293T) (PSI 1-6); higher = more stable
Details: c terminus: a fixed tail appended
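Also: lentivirally expressed fusions sorted by FACS into six bins by GFP to DsRed ratio, PSI derived from sequencing read proportions per bin multiplied by bin number.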

Variant	protein stability index
Q14R	2.45
Q14V	2.77
Q14K	2.84
Q14P	2.39
Q14Y	1.78
Q14G	2.92
H23I	2.93
H23S	2.86
K5S	2.84
K5P	3.06
K5H	2.86
K5T	3.16
K5N	3.28
I3L	2.95
I3F	2.91
I3H	2.71
I3Q	2.69
I3D	3.77
G11Y	2.15
G11E	3.06
G11I	1.71
G11W	1.55
G11P	2.87
G11Q	3.25
N4Y	2.01
N4C	2.45

Variant	protein stability index
N4E	2.86
N4D	3.26
Q13I	2.19
Q13H	2.32
Q13E	3.38
L22F	2.79
L22W	2.57
R12E	3.46
R12C	2.79
R12K	3.06
I7L	2.97
I7Y	2.73
I7F	3.31
I7Q	3.58
P20R	2.5
P20G	3.37
P20W	1.82
P20Q	3.31
S8T	2.77
S8A	3.22
S8Q	2.64
S8G	2.55
L15T	3.15
L15I	2.85
E2Q	2.36
E2S	2.35

Variant	protein stability index
E2R	2.17
Q24N	2.9
Q24Y	2.49
Q24E	4.23
Q24C	1.91
P17Y	2.54
P17E	3.87
P17F	2.02
P17H	2.52
P17T	2.41
P17L	2.21
P17I	1.82
L16Y	2.45
L16H	3.32
L16E	3.72
F10A	3.04
F10N	3.24
F10Q	3.3
E1M	2.35
E1C	2.44
E1I	1.76
E1F	2.3
E1Q	2.73
E1P	2.54
E1S	3.23
D9C	2.09

Variant	protein stability index
D9Q	2.63
D9F	2.1
D9N	2.43
F19Q	4.38
F19M	4.19
F19C	4.24
F19A	4.02
F19Y	3.29
F19R	4.1
P18S	3.12
P18K	3.36
P18N	3.05
P18L	3.07
P18A	3.28
P18Q	3.63
P18Y	2.94
P18E	3.66
P18I	2.87
S21T	3
S21G	2.7
N6M	2.92
N6C	2.44
N6L	1.97
N6V	2.71
N6Q	2.71

Variants of: B2
Assay: as above
Details: c terminus: a fixed tail appended

Variant	protein stability index
C22L	1.78
C22K	2.35
C22D	2.22
C22N	2.28
C22Y	1.65
C22W	2.41
C22H	2.14
C22S	2.28
C22M	1.71
C22E	2.96
C22R	2.14
C22V	2.1
C22A	2.72
C22G	2.35
C22I	1.85
C22P	2.02
C22Q	2.02
C22F	1.69
C22T	2.57
K21S	1.86
K21T	1.69
K21Q	1.98

Variant	protein stability index
K21R	1.56
K21V	1.62
K21W	2.23
K21Y	2.8
P24L	2.1
P24R	2.2
P24T	2.03
P24W	1.91
P24M	2.24
P24E	2.34
P24K	2.03
P24S	1.95
P24F	1.35
P24C	4.33
P24Y	1.54
P24A	2.03
P24H	2.54
P24N	2.31
P24I	2.25
P24D	2
P24V	2.93
P24Q	2.04

Variant	protein stability index
P24G	2.23
S23P	2.02
S23G	2.08
S23N	2.17
S23A	1.87
S23W	2.53
S23H	1.6
S23Q	2.05
S23F	1.9
S23K	2.06
S23R	2.44
S23Y	1.5
S23T	2.09
S23D	2.46
S23E	2.14
S23L	2.08
S23V	2.52
S23C	2.26
S23I	1.4
S23M	1.61
